From the nanobody polyreactivity screen of Harvey et al. (2022)

Experiment: yeast display, Sf9 membrane polyspecificity reagent, FACS + sequencing; frameworks hold sequencing errors
Outline: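 After 36–48 hours of galactose induction, yeast (Saccharomyces cerevisiae BJ5465) displaying a synthetic nanobody library were stained at 4 °C for 1 hour with 10% biotinylated, detergent-solubilized Sf9 membrane reagent. Streptavidin microbeads enriched the stained cells before FACS sorting into low and high (top ~1%) gates on anti-HA and streptavidin fluorescence. Each clone's polyreactivity label reflects its gate of origin.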

QVQLVESGGGLVQAGGSLRLSCVPPDLPSTLNVMGWYRQAPGKERELVAAISQRGGSTYYADSVKGRFTISRDNAKNTVYLEMNSLKPEDTAVYYCAAGPGDSGDDYWGQGTQVTVSS
polyreactivity (PSR sort gate): low polyreactivity

QVQLVESGGGLVQAGGSLRLSCYASGGTFRWYAMGWSRQAPGKERELVAAISYSGGPTYADSVKGRFTISRDNAKNTVYLQMNSLKPEDTAVYYCNAVRYITHYDYWGQGTQVTVSS
polyreactivity (PSR sort gate): high polyreactivity

QVQLVESGGGLVQAGGSLRLSCYASGRTFAGYVMGWYRQAHGKERELVAAINASGGSTYYADSVKGRFTISRDNAKNTVYLQMNSLKPEDTAVYYCAAARLGSDITRRYYYWGQGTQVTVSS
polyreactivity (PSR sort gate): high polyreactivity

QVQLVESGGGLVQAGGSLRLSFAASGFTFRYYVMGWYRQAPGKERELVASISRGGSTTNYADSVKGRFTISRDNAKNTVFLQMNSLKPEDTAVYDCNVVITPGYSYDISRGEGYWGQGTQVTVSS
polyreactivity (PSR sort gate): high polyreactivity

QVQLVESGGGLVQAGGSLRLSFAASGHTFRYYAMGWYRQAPGKERELVAAITGGGGSTYYADSVKGRFTISRDNAKNTVYFQMNSLKPEDTAVYYCATGGVSGMVGGDYWGQGTQVTVSS
polyreactivity (PSR sort gate): low polyreactivity

QVQLVESGGGLVQAGGSLRLSFAASGITFSSYAMGLYRQAPGKERELVARISTDADTYYADSVKGRFTISRDNAKNTVYLQMNSLKPEDTAVYYCAAEDYWDFDYWGQGTQVTVSS
polyreactivity (PSR sort gate): low polyreactivity

QVQLVESGGGLVQAGGSLRLSFAASGLNFRVYAMGWYTQAPGTERELVAAISRGGSTYYADSVKGRFTISRDNAKNTVYLQMNSLKPEDTAVYYCAAVFVHRGYYYWGQGTQVTVSS
polyreactivity (PSR sort gate): high polyreactivity

QVQLVESGGGLVQAGGSLRLSFAASGNTFVSNAMGWYRQAPGKERELVAAISGRGGRTYYADSVKGRFTISRDIAKDTVYLQMNSLKPEDTAVYYCDADQYKDFDYWGQGTLVTVSS
polyreactivity (PSR sort gate): low polyreactivity

QVQLVESGGGLVQAGGSLRLSFAASGRIFGENAMGWYRQAPGKEREFVAVISISDASTYYADSVKGRFTLSRDNAKNTVYLQMNSLKPEDTAVYYWAADLTDFLYVASDYWGQGTQVTVSS
polyreactivity (PSR sort gate): low polyreactivity

QVQLVESGGGLVQAGGSLRLSFAASGRIFGGYGMGWYRQAPGKERELVAAIDADAGSTYYADSVKGRFTISRDNAKNTVYLQLNSLKPEDTAVYYCAPVDQVAVDKHDYWGQGTQVTVSS
polyreactivity (PSR sort gate): low polyreactivity

QVQLVESGGGLVQAGGSLRLSFAASGRIFVRYSMGWYRQAPGKERELVAAISSSGSSTYYADSVKGRFTISRDNAQNTFYLKMNCLKPEDTAVYYCAAASVRYPRYEYWGQGTQVTVSS
polyreactivity (PSR sort gate): high polyreactivity

QVQLVESGGGLVQAGGSLRLSFAASGRIFYQYAMGWYRQAPGKERELVAAINSYGGRTYYADSVKGRFTISRDNAKYTVYLQMNSLKPEDTAVYYCAKLRVPYYAEYGYWGQGTQVTVSS
polyreactivity (PSR sort gate): high polyreactivity

QVQLVESGGGLVQAGGSLRLSFAASGRTFYSYAMGWYRQAPGKETQLVASITSTGSTYYADSVKGRFTISRDNAKNTVYLQMNSLKPEDTAVYYCAARRQPRYSQRSTYYYWGQGTQVTVSS
polyreactivity (PSR sort gate): high polyreactivity

QVQLVESGGGLVQAGGSLRLSFAASGSIFNYNAMGWYRQAPGKERELVAAITYADSVKGRFTISRDNAKNTVYLQMNSLKPEDTAVYHCNTHYVPSFRFDYWGQGTQVTVSS
polyreactivity (PSR sort gate): low polyreactivity

QVQLVESGGGLVQAGGSLRLSFAASGSIFVGYAMGLYRQAPGKERELVAAISWSGDSTYYADSVKGRFTISRDNAKNTVYLQMYSLKPEDTAVPYCAVDPQQVRTLDYYVGYDYWGQGTQVTVSS
polyreactivity (PSR sort gate): low polyreactivity

QVQLVESGGGLVQAGGSLRLSFAASGSTFSEYALGLYRQAPGKERELVAAITSSSGSTYYADSVKGRFTISRVNAKNTVYLQMNSLKPEDTAVYYCNAYYRTVYYDWGDYEYWGEGTQVTVSS
polyreactivity (PSR sort gate): high polyreactivity

QVQLVESGGGLVQAGGSLRLSFAASGSTFSSNAMGWYRQAPGKERELVAAISVNGGSTNYADSVKGRFTISRDNAKNTVYLQMNSLKPEDTAVYYCDAEPDKVAFYRGDYWGQGTQVTVSS
polyreactivity (PSR sort gate): low polyreactivity

QVQLVESGGGLVQAGGSLRLSFAASGSTFVIYAMGWYRQAPGTERELVAAISGRTGSTYYADSVKGRFTISRDNAKNTVYLQMNSLKPEDTAVYYCAAYKRSGLKYGHWGQGTQVTVSS
polyreactivity (PSR sort gate): high polyreactivity

QVQLVESGGGLVQAGGSLRLSFAASGSTFVYNAMGWYRPAPGKERELVAAITVIGGRTYYADSVKGRFTISRDNAKNTVYLQMNSLKPEDTAVYYCNADATESIGYYDEYEYWGQGTQVTVSS
polyreactivity (PSR sort gate): low polyreactivity

QVQLVESGGGLVQAGGSLRLSFAASGYIFYYNAMGWYRQAPGKERELVAAISRGGNTYYADSVKGRFTISRDNAKNTVYLQMNSLKPEDNAVYYFNARPPNKRYKYGYWGQGTQVTVSS
polyreactivity (PSR sort gate): high polyreactivity

QVQLVESGGGLVQAGGSLRLSFASSGSTFYYNAMGWYRQAPGKERDLVARISRSGGSTYADSVKGRFTISRDNAKNTVYFQMNSLKPEDTAVSYCNADAYGTPEFTSYAVRYDYGGQGTQVTVSS
polyreactivity (PSR sort gate): low polyreactivity

QVQLVESGGGLVQAGGSLRLSGAASGFIFDQNAMGGYRQPPGKVRELVAAISKRGGSTYYADSVKGRFTISRDNAMNTVYLQMNSLKPEDTAVYYCARPRRSVNFYKYIYNYWGQGTLVTVSS
polyreactivity (PSR sort gate): high polyreactivity
